From article PMC10978961, “Architecture and activation of human muscle phosphorylase kinase” (Nature Communications, 2024)

Target: the molecule itself
Experiment: cryo-EM structure; inactive PhK holoenzyme, dephosphorylated, with 4 mM EGTA and excess calmodulin; 25 mM HEPES pH 6.8, 150 mM NaCl, 2 mM DTT; subunits co-expressed and purified as a complex

B1: human muscle phosphorylase kinase (PhK) β-subunit (natural protein, UniProt Q93100 1-1093, looked up)
chain: MAGAAGLTAEVSWKVLERRARTKRSGSVYEPLKSINLPRPDNETLWDKLDHYYRIVKSTLLLYQSPTTGLFPTKTCGGDQKAKIQDSLYCAAGAWALALAYRRIDDDKGRTHELEHSAIKCMRGILYCYMRQADKVQQFKQDPRPTTCLHSVFNVHTGDELLSYEEYGHLQINAVSLYLLYLVEMISSGLQIIYNTDEVSFIQNLVFCVERVYRVPDFGVWERGSKYNNGSTELHSSSVGLAKAALEAINGFNLFGNQGCSWSVIFVDLDAHNRNRQTLCSLLPRESRSHNTDAALLPCISYPAFALDDEVLFSQTLDKVVRKLKGKYGFKRFLRDGYRTSLEDPNRCYYKPAEIKLFDGIECEFPIFFLYMMIDGVFRGNPKQVQEYQDLLTPVLHHTTEGYPVVPKYYYVPADFVEYEKNNPGSQKRFPSNCGRDGKLFLWGQALYIIAKLLADELISPKDIDPVQRYVPLKDQRNVSMRFSNQGPLENDLVVHVALIAESQRLQVFLNTYGIQTQTPQQVEPIQIWPQQELVKAYLQLGINEKLGLSGRPDRPIGCLGTSKIYRILGKTVVCYPIIFDLSDFYMSQDVFLLIDDIKNALQFIKQYWKMHGRPLFLVLIREDNIRGSRFNPILDMLAALKKGIIGGVKVHVDRLQTLISGAVVEQLDFLRISDTEELPEFKSFEELEPPKHSKVKRQSSTPSAPELGQQPDVNISEWKDKPTHEILQKLNDCSCLASQAILLGILLKREGPNFITKEGTVSDHIERVYRRAGSQKLWLAVRYGAAFTQKFSSSIAPHITTFLVHGKQVTLGAFGHEEEVISNPLSPRVIQNIIYYKCNTHDEREAVIQQELVIHIGWIISNNPELFSGMLKIRIGWIIHAMEYELQIRGGDKPALDLYQLSPSEVKQLLLDILQPQQNGRCWLNRRQIDGSLNRTPTGFYDRVWQILERTPNGIIVAGKHLPQQPTLSDMTMYEMNFSLLVEDTLGNIDQPQYRQIVVELLMVVSIVLERNPELEFQDKVDLDRLVKEAFNEFQKDQSRLKEIEKQDDMTSFYNTPPLGKRGTCSYLTKAVMNLLLEGEVKPNNDDPCLIS
modifications: farnesyl group on Cys1090 (mass spectrometry; density in the cryo-EM maps); treated with λ-phosphatase
notes: phosphorylase kinase β-subunit, human, full length; domains D1-D5; Forms the central β4 homotetramer of the hexadecamer
stoichiometry N: 4
